Reference: doi:10.1101/2025.03.26.645513v1

Test system: CC(=O)OC[C@H](N)C(=O)O
Assay: purified protein
Conditions: 30 mM Na2S, MOPS, 37 °C, no glycerol, cooperative

Question: Which K0.5 does the source give for NgCysK (Neisseria gonorrhoeae FA 1090) here?
Answer: 1.541 ± 0.306 mM
